Reference: the supplement of paper PMC9170038

Test system: K4 kissing-loop RNA reporter
Assay: apparent KD of K4 kissing-loop reporter; higher = weaker reporter binding
Conditions: Eterna round: R107
Description: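 RNA-MaP round R107: designed RNA switches with theophylline, tryptophan, arginine or FMN aptamers are transcribed on-chip within common flanks. They are titrated with a labelled K4 kissing-loop RNA reporter in RNA-MaP buffer (100 mM Tris pH 7.5, 80 mM KCl, 4 mM MgCl2), without ligand or with the indicated ligand. Median apparent KD per design.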

[1] = input ligand: theophylline 20 uM
[2] = input ligand: tryptophan 2.4 mM
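Also: bound reporter read as fluorescence of individual clusters on recovered sequencing chips by microscopy, with normalized cluster intensities fitted with a binding model.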

Sequence	apparent KD of K4 kissing-loop reporter (input ligand: FMN 200 uM)	apparent KD of K4 kissing-loop reporter (input ligand: arginine 13.2 mM)	apparent KD of K4 kissing-loop reporter (input ligand: none)	apparent KD of K4 kissing-loop reporter [1]	apparent KD of K4 kissing-loop reporter [2]
UGUGAUGUGUAGUGUUAUGUUUUGAGGGAUACCAGAGUGUUUUUAUUCCCUUGGCAGCUUGAGUGAUGUUUGAUGUUGUUGUUGU [knnumullin]	303 nM	166 nM	232 nM	213 nM	187 nM
GACAAUUCCGCUUCCGAGCAUACUUGACUGAAGGAUAUCAUCGUGUUGAGAAGGUCAGUAACAGAGAGUGAUGUUCUUUGAGGUC [theeternabot_sameState_KL_FMN_A_19]	242 nM	168 nM	234 nM	207 nM	151 nM
AGUAAUGAGUGAUGUUCAAGUAGUAAGGAUACCAGUAAUUCAAAAUGCCCUUGGCAGCUUAGCGCUACCAAUAGAUGGGUAGUGG [Theophilline A V3 (+6G)]	243 nM	250 nM	286 nM	297 nM	160 nM
CGCGCGCGCGCGCGCGCGCGCGCGCGAAGUGAGGAUAUUUAGGGAGAAAGAAGGCACUAUAAAAUAUAGUGAUGUUAUAUAAGGG [SSFMNA.B]	920 nM	499 nM	720 nM	203 nM	496 nM
UGUACCGAGUGAGGAUAUGUCGUCGAAAGACGAAAUGGAGUGAUGUUCCUUAAACUGCGAAAGCAGACAGAAGGCACUUGGUACU [FmnBS 29 G11+C75]	129 nM	171 nM	192 nM	170 nM	168 nM
GAGAAUCUAAUUGAUACCAGAGUAAGAACCAGUGAUGUUGGAAGAUUCCCUAAUAAAUAACUCCCUUGGCAGCGGAAGAGAAUAG [Totally accidental 2]	142 nM	230 nM	176 nM	327 nM	172 nM
GUACGCUCUCGAGUGAUGUUCGGUAAUCGCGAGGAUAUCGCUUUUGCGAGAAGGCGCGGAAUGAGGAAACUCGUUCUGAGUGUAC [FMN A 23]	364 nM	444 nM	461 nM	637 nM	715 nM
GCACUCCAUCGGACGUAAGUGAUGUUUACCCGAGGACCGGUACGGCCGCCACUCGACCGUGCAUAACCAAAUCAAAUAGCUUCCG [theeternabot_exclusion_KL_Trp_A_31]	143 nM	127 nM	138 nM	120 nM	221 nM
AAGCAGUCACUCGAACCCAUCGAAGAUGGGCGAGGACCGGUACGGCCGCCACUCGGAGUGAUGUUCCGAAGACUGCAAAAUAAAA	329 nM	367 nM	293 nM	341 nM	555 nM
GGCUAGACUUAGCUAGGUACAUAAUACGAUACCAGUCUAGAAAUAGACCCUUGGCAGCGUAGGCAGUGAUGUUGCCACUAGCUGA [Theo B SS t7]	104 nM	144 nM	114 nM	144 nM	113 nM
CUAUAAGUGCCGAGUGAUGUUCGGCCAAUACGAGGACCGGUACGGCCGCCACUCGGUCAGUGGGUGCCCACCGGGCAUGGCUGAC [Cecezaa]	174 nM	217 nM	176 nM	227 nM	112 nM
GUAGGAUGAGGAGGAGGAUGAAAUACUGAAGGAGCGCAGAGAAAUGCAGGUAGGUCGCGGUAAGGAAGUAUAGUGAUGUUAUAUA [#07 K4 Arginine A Same State]	414 nM	367 nM	664 nM	755 nM	449 nM
CCGGCCCAGCCGGAUACCAGUGCGCCGCAGGGAACGGCGGGCCCAGAGUGAUGUUCGGGACACCCUUGGCAGCCGCCUGGGUCGC [#2 Same State - Theophylline B Attempt #27 (HarryS)]	234 nM	197 nM	309 nM	314 nM	297 nM
GUGUCCUAGUCGGCCGCCACUGGGUGCAAAAUAGAAGGAGCAUUGCACAUCAGUGAUGUUGAUGUCAGGACCGGGACUAGGGUGU [KL-SSTryp-B5 Brourdwalk1]	652 nM	406 nM	597 nM	563 nM	439 nM
GUGGCACGAAAGUGCCACGCAUCCUCUGGCUAGGAUAUCUGGAAACAGAGAAGGAGCUCAUGAGUGAUGUUCAUCUAGAGGAUGC	827 nM	537 nM	1010 nM	978 nM	947 nM
UUUAACGAGUGAUGUUCGAAAAGUAAUGGUGAGGAUAUCGUUUUUUCGAGAAGGCACCUCGAAGUGAUACGAAAGUAUCGCUUCG [FMN A 3]	172 nM	332 nM	315 nM	314 nM	266 nM
AAAGUUGAAAGUGAUACCAGACGAGUGAAGGGAAGUAAUUAAUUUGGAGUGAUGUUCCGCGUCCCUUGGCAGCAUUUUGUAAUUU [Exclusion Theophylline B GF 24]	166 nM	195 nM	189 nM	186 nM	153 nM
AGAAACUUGUAUACAGGGCAUGCCAGAGAUACCAGUCAAAUGGAAGGCCCUUGGCAGCUCAGGCGAGUGAUGUUCGCAGGCUGAC [Exclusion Theophylline A GF 20]	132 nM	113 nM	142 nM	145 nM	105 nM
GCUAUGGUAGGAAGGAGCGCUUACUCAUUAAUAAGAGUGAUGUUCGAUAAUGAGUAUUUAUAGCAGGUAGGUCGCCUACUAUAGC [Arginine B K4 3]	280 nM	221 nM	270 nM	247 nM	237 nM
UGAUAGGACAGAAGGAGCGGAAGUGAUGUUUCCAAAAGGAUAAGGUGUCAAAAGACACCCUUCCAGGUAGGUCGCUGUCCUAUCU [ArgBX 13 #Palindromic #SwitchBubble #StaticStem]	148 nM	165 nM	134 nM	145 nM	136 nM
GUCCACACUGCAGGAUAUGGAGAAAUAGCGAGGGAGCUUGGAAGCACGCCUCUGGCAGUGAUGUUGCCAGAAGGGCGGUGCGGCG [Dilazasole]	106 nM	76.9 nM	75.2 nM	76.9 nM	80.8 nM
AAGUCAUAUAGAAGGAGCGUGUUUUUUAAUUUGUUUUCAUGAUCGAGUGAUGUUCGAUAUACACAGGUAGGUCGCUGUAUAAUAA [hbob_SS_Arginine_B_2t142]	119 nM	141 nM	131 nM	127 nM	106 nM

Sequence	apparent KD of K4 kissing-loop reporter (input ligand: FMN 200 uM)	apparent KD of K4 kissing-loop reporter (input ligand: arginine 13.2 mM)	apparent KD of K4 kissing-loop reporter (input ligand: none)	apparent KD of K4 kissing-loop reporter [1]	apparent KD of K4 kissing-loop reporter [2]
GGCACUUUUGGUAGAAAACAUCUACCUCUAUAGGAUAUGCCGAAAGGCAGAAGGAUAGACCUACAGAGUGAUGUUCUGCGUGCCU	874 nM	143 nM	447 nM	356 nM	283 nM
GGCACUACAGCGGCCGCCACUGUUUAGUCCAUCGCUUGCGAGUGAUGUUCGUAGGUACUGCAGCUCAGGACCGGGCUGUCCUUAC [theeternabot_sameState_KL_Trp_B_34]	475 nM	393 nM	471 nM	310 nM	388 nM
CCAGAAUGAUGAGGAUGAUAAAUUACUGAAGGAGCGCAUAUAGUUGCAGGUAGGUCGCGGUGAAUAAGUAUAGUGAUGUUAUACC [SSArgA.Ab]	595 nM	327 nM	314 nM	322 nM	341 nM
AAGUUGAACUGAAGGAGCGAGAAAUAGAAUGUAAGAAUAUAUGCUAGUGAUGUUAGAAAUUCUCAGGUAGGUCGCAGUAAGAAUU [V1]	368 nM	357 nM	442 nM	510 nM	317 nM
GGUAGCAUGGCGGCCGCCACUACCUAGUGAUGUUAGGCUGUGGACAUAGGAGCAAGAUAAAUAUGUAGGACCGGGCCAUGCUACC	129 nM	88.8 nM	103 nM	119 nM	111 nM
AAAUUUAUAUUAGAUACCAGCAUUUUGAAUGUUUAUUAUGACAAGAGUGAUGUUCUUGUAUGCCCUUGGCAGCUGGUAUGGGUUU [KL-XTheo-B24]	123 nM	115 nM	136 nM	120 nM	125 nM
GGGCGCGGCGCGGCCGCCACUGCGCCUGGGUGCUCGCUGAGUGAUGUUCGUCGGCGGUUGGGUGGUAGGACCGGGUGCUGGCCGG [BDazzled - #13 SS Tryptophan B]	654 nM	463 nM	525 nM	522 nM	527 nM
UGAUUUAACUGAAGGAGCGGCAAUUGAUAAGUAAAUAUAGUGAUGUUAUAUAAGAUAGAGAGCCAGGUAGGUCGCAGAGGUAUGA [ExArgB.L]	193 nM	159 nM	158 nM	150 nM	139 nM
CGGCGGAGUGAUGUUCCACCUACUGCGGAUACCAGCUUUGCCAGAGGCCCUUGGCAGCCGCACGGCUCAGUGAUGUUGGGUUGCG [Same State Theophylline A G12]	237 nM	162 nM	227 nM	219 nM	195 nM
CCCUAUAUAUGCAGUGAUGUUGCAACUGAUACCAGUAUCGAAAGAUACCCUUGGCAGCGGAAAACCGCUACGUAAUUUAAUAGGG [Ex Theophylline A K4 21]	384 nM	422 nM	419 nM	461 nM	265 nM
UAAUAAAUUCCAGCGAUAUCGCUCUUCGAAGGAGCGGACGAAAGUCCAGGUAGGUCGCGGAGAGUGAUGUUCUUUGCGGCGCUGG [whbob_Ex_Arginine_A_2t133]	450 nM	177 nM	356 nM	298 nM	266 nM
AAGCAGUCACUCGCAGCCAUCGAAGAUGGUCGAGGACCGGUACGGCCGCCACUCGGAGUGAUGUUCCGAAGACUGCAAAAUAAAA	281 nM	259 nM	282 nM	325 nM	400 nM
CGAUAGGGAAGUCGAUUGCUCACUGGUAAACGAGGACCGGUACGGCCGCCACUCGGGUCCAGUGAUGUUGGACUUUGUGGCGGGC [Edladian]	117 nM	99.5 nM	104 nM	99.5 nM	109 nM
GUGGCGGGCCAAGGAUAUAUUUUGGAGUGAUGUUGUUCAUUUAUUUGAGCUAGUGAUGUUGGUCGAAUAGAAGGUGGCCCGCCAC [whbob_Ex_FMNB__2th220]	69.9 nM	27.2 nM	52.8 nM	44.7 nM	45.8 nM
GUAUAUCGAACUGAUACCAGAGAAUAAAGCAGUGAUGUUGCAUAUAUAAAUAAGACUCGACUCCCUUGGCAGCGGGAAGAUAUAC [On purpose 1]	170 nM	231 nM	197 nM	280 nM	146 nM
AAACGUUGGUCGGAUACCAGCUUGAUCGGAAACGAUCUGCUGGAGUGAUGUUCCAAGUAAAGCCCUUGGCAGCCGACCGACGAAA [MAT - Same State Theophlline B - Mod of Eli - D18]	148 nM	65.1 nM	99.4 nM	95.4 nM	71.6 nM
CAAUGAAUAUAAGAUGAUAUCAUAACAGAAGGAGCGAGUGAUAACUCAGGUAGGUCGCUGAAUUUAUCGAGUGAUGUUCGAUAAA [Same State Arginine A GF10]	208 nM	158 nM	197 nM	176 nM	183 nM
UGCGCUAUGUCCUAAAACGUCCUCCGGGAUACCAGUGUCUUUUUAUACCCUUGGCAGCUUGAGUGAUGUUUGAUGCCGUUCUUGU [izzxmullin]	432 nM	225 nM	310 nM	386 nM	304 nM
UCCUCGAAUCGACCUCGAAAGAGGAUGGAUACCAGAGAAGAAAUUCUCCCUUGGCAGCCAGUGAUGUUGGAACGAGGUAAAUAAA [#SwitchBubble 20 #K4Late]	508 nM	412 nM	517 nM	327 nM	424 nM
GUAUGUGGAAACACGUACUUGUAUCCUAGGAAGGAUAUGCGGAAACGCAGAAGGUCCACCGGCGAGUUUAUCCAGUGAUGUUGGA [Ex FMN A 10]	260 nM	275 nM	274 nM	318 nM	248 nM
UAUGAAGGUGGAGGAUAUUGAUUGAAUCUUGGUCUGGAGUGAUGUUCCGGGAAGCCUUGGAUUCAUCGAGAAGGCCAAGGAUAGU [Extra 1]	123 nM	269 nM	307 nM	263 nM	198 nM
GCAACAUUGGCAGGAUAUCCUUCUCAGUGAUGUUGAGGGUUCAGCUAACGAAAGUUAGUUGUACCAGGAGAAGGGCUAAUGUUGC [Omei KL FMN B SS A v7]	416 nM	815 nM	1420 nM	906 nM	1440 nM
